Measured values from US20240108738A1 (Bicycle, published 2024).
Numbered stars: 1 amine (or outer) side, 2 acyl side, 3 side chain; on linkers, the order of the positions; unused ones are H or OH. Bridge positions count the residues as written; N and C are the ends. Square brackets hold non-standard residues; d marks the D form. Primed or numbered codes have the meaning given here. Ends that are not written are not given here. * marks the point of attachment. TBMT = 2,4,6-tris(bromomethyl)-s-triazine, C(c1nc(C[*:2])nc(C[*:3])n1)[*:1]; TBMT″ = 2,4,6-tris(bromomethyl)-s-triazine, scaffold on three Cys; TATA = O=C(CC[*:1])N1CN(C(=O)CC[*:2])CN(C(=O)CC[*:3])C1; Biotin = O=C1N[C@H]2[C@H](CS[C@H]2CCCCC(=O)*)N1; Phe(4-CF3) = N[C@@H](Cc1ccc(C(F)(F)F)cc1)C(=O)O; Phe(4-CN) = N#Cc1ccc(C[C@H](N)C(=O)O)cc1; Phe(4-Cl) = N[C@@H](Cc1ccc(Cl)cc1)C(=O)O; Cba = N[C@@H](CC1CCC1)C(=O)O; Pent4ynoyl = C#CCCC(=O)*; Sar = CNCC(=O)O

B1: BCY15650 (peptide)
peptide: ACYLPDYLC[dA]DEYCA-NH2
modifications: linker 2-9-14 via TATA; N-terminus assumed
SMILES: CC(C)C[C@@H]1NC(=O)[C@H](Cc2ccc(O)cc2)NC(=O)[C@H](CC(=O)O)NC(=O)[C@@H]2CCCN2C(=O)[C@H](CC(C)C)NC(=O)[C@H](Cc2ccc(O)cc2)NC(=O)[C@@H](NC(=O)[C@H](C)N)CSCCC(=O)N2CN3CN(C2)C(=O)CCSC[C@H](NC1=O)C(=O)N[C@H](C)C(=O)N[C@@H](CC(=O)O)C(=O)N[C@@H](CCC(=O)O)C(=O)N[C@@H](Cc1ccc(O)cc1)C(=O)N[C@H](C(=O)N[C@@H](C)C(N)=O)CSCCC3=O
notes: scaffold TATA
B2: BCY15639 (peptide)
peptide: ACY[Cba]PDYLCGDEYCA-NH2
modifications: linker 2-9-14 via TATA; N-terminus assumed
SMILES: CC(C)C[C@@H]1NC(=O)[C@H](Cc2ccc(O)cc2)NC(=O)[C@H](CC(=O)O)NC(=O)[C@@H]2CCCN2C(=O)[C@H](CC2CCC2)NC(=O)[C@H](Cc2ccc(O)cc2)NC(=O)[C@@H](NC(=O)[C@H](C)N)CSCCC(=O)N2CN3CN(C2)C(=O)CCSC[C@@H](C(=O)N[C@@H](C)C(N)=O)NC(=O)[C@H](Cc2ccc(O)cc2)NC(=O)[C@H](CCC(=O)O)NC(=O)[C@H](CC(=O)O)NC(=O)CNC(=O)[C@H](CSCCC3=O)NC1=O
notes: scaffold TATA
B3: BCY16132 (peptide)
peptide: ACY[Cba]PDYLC[dA]DEYCA-NH2
modifications: linker 2-9-14 via TATA; N-terminus assumed
SMILES: CC(C)C[C@@H]1NC(=O)[C@H](Cc2ccc(O)cc2)NC(=O)[C@H](CC(=O)O)NC(=O)[C@@H]2CCCN2C(=O)[C@H](CC2CCC2)NC(=O)[C@H](Cc2ccc(O)cc2)NC(=O)[C@@H](NC(=O)[C@H](C)N)CSCCC(=O)N2CN3CN(C2)C(=O)CCSC[C@H](NC1=O)C(=O)N[C@H](C)C(=O)N[C@@H](CC(=O)O)C(=O)N[C@@H](CCC(=O)O)C(=O)N[C@@H](Cc1ccc(O)cc1)C(=O)N[C@H](C(=O)N[C@@H](C)C(N)=O)CSCCC3=O
notes: scaffold TATA
B4: BCY16142 (peptide)
peptide: ACYLPD[Phe(4-CF3)]LCGDEYCA-NH2
modifications: linker 2-9-14 via TATA; N-terminus assumed
SMILES: CC(C)C[C@@H]1NC(=O)[C@H](Cc2ccc(C(F)(F)F)cc2)NC(=O)[C@H](CC(=O)O)NC(=O)[C@@H]2CCCN2C(=O)[C@H](CC(C)C)NC(=O)[C@H](Cc2ccc(O)cc2)NC(=O)[C@@H](NC(=O)[C@H](C)N)CSCCC(=O)N2CN3CN(C2)C(=O)CCSC[C@@H](C(=O)N[C@@H](C)C(N)=O)NC(=O)[C@H](Cc2ccc(O)cc2)NC(=O)[C@H](CCC(=O)O)NC(=O)[C@H](CC(=O)O)NC(=O)CNC(=O)[C@H](CSCCC3=O)NC1=O
notes: scaffold TATA
B5: BCY16143 (peptide)
peptide: ACYLPD[Phe(4-CN)]LCGDEYCA-NH2
modifications: linker 2-9-14 via TATA; N-terminus assumed
SMILES: CC(C)C[C@@H]1NC(=O)[C@H](Cc2ccc(C#N)cc2)NC(=O)[C@H](CC(=O)O)NC(=O)[C@@H]2CCCN2C(=O)[C@H](CC(C)C)NC(=O)[C@H](Cc2ccc(O)cc2)NC(=O)[C@@H](NC(=O)[C@H](C)N)CSCCC(=O)N2CN3CN(C2)C(=O)CCSC[C@@H](C(=O)N[C@@H](C)C(N)=O)NC(=O)[C@H](Cc2ccc(O)cc2)NC(=O)[C@H](CCC(=O)O)NC(=O)[C@H](CC(=O)O)NC(=O)CNC(=O)[C@H](CSCCC3=O)NC1=O
notes: scaffold TATA
B6: BCY16144 (peptide)
peptide: ACYLPD[Phe(4-Cl)]LCGDEYCA-NH2
modifications: linker 2-9-14 via TATA; N-terminus assumed
SMILES: CC(C)C[C@@H]1NC(=O)[C@H](Cc2ccc(Cl)cc2)NC(=O)[C@H](CC(=O)O)NC(=O)[C@@H]2CCCN2C(=O)[C@H](CC(C)C)NC(=O)[C@H](Cc2ccc(O)cc2)NC(=O)[C@@H](NC(=O)[C@H](C)N)CSCCC(=O)N2CN3CN(C2)C(=O)CCSC[C@@H](C(=O)N[C@@H](C)C(N)=O)NC(=O)[C@H](Cc2ccc(O)cc2)NC(=O)[C@H](CCC(=O)O)NC(=O)[C@H](CC(=O)O)NC(=O)CNC(=O)[C@H](CSCCC3=O)NC1=O
notes: scaffold TATA
B7: BCY12622 (peptide)
peptide: ACPPEVWCHPLDCA[Sar][Sar][Sar][Sar][Sar][Sar]K(Biotin)-NH2
modifications: linker 2-8-13 via TATA; N-terminus assumed
SMILES: CC(C)C[C@@H]1NC(=O)[C@@H]2CCCN2C(=O)[C@H](Cc2c[nH]cn2)NC(=O)[C@@H]2CSCCC(=O)N3CN(CN(C3)C(=O)CCSC[C@H](NC(=O)[C@H](C)N)C(=O)N3CCC[C@H]3C(=O)N3CCC[C@H]3C(=O)N[C@@H](CCC(=O)O)C(=O)N[C@@H](C(C)C)C(=O)N[C@@H](Cc3c[nH]c4ccccc34)C(=O)N2)C(=O)CCSC[C@@H](C(=O)N[C@@H](C)C(=O)N(C)CC(=O)N(C)CC(=O)N(C)CC(=O)N(C)CC(=O)N(C)CC(=O)N(C)CC(=O)N[C@@H](CCCCNC(=O)CCCC[C@@H]2SC[C@@H]3NC(=O)N[C@@H]32)C(N)=O)NC(=O)[C@H](CC(=O)O)NC1=O
notes: scaffold TATA

Molecular target: T1, Human NKp46 Fc tag (Acro Biosystems, NC1-H5257) (human, UniProt O76036 22-255)
T1 construct: bought; also called Fc-tagged human NKp46
T1 sequence (O76036 22-255 limits assumed): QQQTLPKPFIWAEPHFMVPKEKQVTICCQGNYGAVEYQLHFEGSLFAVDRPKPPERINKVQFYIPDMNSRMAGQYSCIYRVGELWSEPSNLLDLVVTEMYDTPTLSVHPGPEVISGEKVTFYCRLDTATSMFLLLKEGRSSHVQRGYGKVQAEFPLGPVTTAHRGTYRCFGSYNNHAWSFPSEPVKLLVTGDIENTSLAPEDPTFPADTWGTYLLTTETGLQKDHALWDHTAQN
Experiment: SPR Method 1 and/or 2
Method in brief: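 Fc-tagged human NKp46 captured on anti-human IgG surface (500–1000 RU); compounds run in PBS-P+ with 2% DMSO at 25 °C, 50 μL/min, 60 s association, 400 s dissociation. Double-referenced, DMSO-corrected; KD from steady-state 1:1 fit, kinetic constants from kinetic 1:1 fit where appropriate.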

Compared with Ac-CY[Cba]PDYLC[dA]DEYC-NH2 (linker 1-8-13 via TATA, scaffold TATA) [BCY16133], ACYLPDWLCGDEYCA-NH2 (linker 2-9-14 via TATA; also: scaffold TATA, TATB or TBMT, scaffold TATA) [BCY14455] is 47-fold higher in Kd: 4.9 nM for the first, 230 nM for the second.

Compared with B1, ACYLPAYLCGDEYCA-NH2 (linker 2-9-14 via TATA; also: cyclised with TATA, TATB or TBMT, scaffold TATA) [BCY15656] is 3.4-fold higher in Kd: 10 nM for the first, 34 nM for the second. The first binds more tightly here.

First: B2
Second: B3
The Kd of the first is 2.8-fold higher: 11 nM for the first, 3.9 nM for the second.

Molecular target: T2, Human NKp46 His tag (Acro Biosystems, NC1-H52H4) (human, UniProt O76036 22-255)
T2 construct: bought; also called human NKp46-his tagged protein
T2 sequence (O76036 22-255 limits assumed): as above
Experiment: FP competition vs BCY15035
Description: The untagged competitor peptides were diluted in assay buffer 25 mM HEPES, 100 mM NaCl, 0.01% P20, pH 7.4. to a top concentration of 5000 nM and diluted 2-fold in 11 steps. The human NKp46-his tagged protein (AcroBiosystems) was diluted to 40 nM final concentration in the assay. […] The total volume of 25 μL was prepared in black walled and flat-bottomed low binding low volume 384 well plates. Measurements were performed using Envision (PerkinElmer) equipped with the excitation filter FITC FP 480, emission filter FITC FP P-pol 535 and 2nd emission filter FITC FP S-pol 535 and set to 30 flashes. The gain was set in a well containing tracer alone without target protein.

Compared with Ac-CY[Cba]PDYLC[dA]DEYC-NH2 (linker 1-8-13 via TATA, scaffold TATA) [BCY16133], ACYLPDWLCGDEYCA-NH2 (linker 2-9-14 via TATA; also: scaffold TATA, TATB or TBMT, scaffold TATA) [BCY14455] is 28-fold higher in Ki: 10 nM for the first, 282 nM for the second.

Going from B1 to ACYLPAYLCGDEYCA-NH2 (linker 2-9-14 via TATA; also: cyclised with TATA, TATB or TBMT, scaffold TATA) [BCY15656], the Ki rises from 16 nM to 39 nM (2.4-fold). The first binds more tightly here.

Going from B2 to B3, the Ki falls from 17 nM to 8 nM (2.1-fold). The second binds more tightly here.

B4 and B5 are within 1.5-fold of each other in Ki: 317 nM for the first, 464 nM for the second.

B6 gave a Ki of 718 nM.

Molecular target: T3, human CD16a V176 variant, biotinylated (human, UniProt P08637 17-208, N-terminally biotinylated in-house)
T3 construct: supplier is told for the AlphaScreen assay only; also called V Variant; FcγRIIIA V variant
T3 sequence (P08637 other isoform, or with tags, fused parts or gaps mutant limits assumed): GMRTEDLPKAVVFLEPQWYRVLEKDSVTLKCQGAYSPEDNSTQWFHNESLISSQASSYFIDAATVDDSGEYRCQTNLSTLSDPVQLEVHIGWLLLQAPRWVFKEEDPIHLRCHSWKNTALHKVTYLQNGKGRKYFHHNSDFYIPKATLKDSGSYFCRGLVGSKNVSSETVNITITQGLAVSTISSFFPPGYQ
Experiment: SPR
Description: (§1) The SPR analysis was run at 25° C. at a flow rate of 50 μl/min with 60 seconds association and dissociation between 60 and 200 seconds. Data were corrected for DMSO excluded volume effects. All data were double-referenced for blank injections and reference surface using standard processing procedures and data processing and kinetic fitting were performed using Scrubber software, version 2.0c (BioLogic Software). Data were fitted using simple 1:1 binding model allowing for mass transport effects where appropriate.
(§2) For analysis of peptide binding, a Biacore 8k+ instrument was used with a CM5 chip (Cytiva). All experiments were carried out at 25° C. Streptavidin was immobilized on all flow cells by standard amine coupling chemistry. The running buffer was HBS-N(Cytiva, 10 mM HEPES, 0.15 M NaCl, pH 7.4) and the flow rate was 10 μl/min. The carboxymethyl dextran surface was activated with a 1:1 ratio of 0.4 M 1-ethyl-3-(3-dimethylaminopropyl) carbodiimide hydrochloride (EDC)/0.1 M N-hydroxy succinimide (NHS) (Cytiva) for 420s. Streptavidin (ProSpec, cat no. PRO-791) was diluted to 0.2 mg/ml in 10 mM sodium acetate pH 4.5 and was injected onto the chip surface for 600 s. Residual activated groups were blocked with a 420 s injection of 1 M ethanolamine (pH 8.5). The final surface density was 2000-3000 RU. Biotinylated CD16a was diluted to 5 μg/ml in HBS-N and was captured on flow cell 2 only of the streptavidin chip at a flow rate of 10 μl/min to 1500-2500 RU. The buffer was then changed to PBS-P+(Cytiva) supplemented with 0.5-2% DMSO. […] The flow rate was 30 μl/min with 100 s association and 400 s dissociation. Data were corrected for DMSO volume exclusion effects. All data were double-referenced against blank injections and reference surface response using standard processing procedures. Data processing and kinetic fitting was performed using Biacore Insight Evaluation Software with Extended Screening and Characterization Extension (Cytiva). Data were fitted using steady state affinity 1:1 binding model to determine KD. Data were fitted using kinetic 1:1 binding model to determine kinetic constants where appropriate.

B7 and ACVGLLELGPCSDLCAK(Pent4ynoyl)-NH2 (linker 2-11-15 via TBMT (inferred), scaffold TBMT) [BCY16165] are within 1.5-fold of each other in Kd: 4000 nM for the first, 3230 nM for the second.

Going from ACVGXEELGPCSDLCA (CiVG[tBuAla]EELGPCiiSDLCiii, scaffold TBMT) [BCY16501] to ACVGLXELGPCSDLCA (CiVGL[Nle]ELGPCiiSDLCiii, scaffold TBMT) [BCY16511], the Kd rises from 3220 nM to 5000 nM (1.6-fold).

ACRWXFSEPCGAWCA (CiRW[4FPhe]FSEPCiiGAWCiii, scaffold TBMT) [BCY20379] and ACRWHFXEPCGAWCA (CiRWHF[HSer]EPCiiGAWCiii, scaffold TBMT) [BCY20388] are within 1.5-fold of each other in Kd: 1430 nM for the first, 1080 nM for the second.

ACRWYFSEXCAAWCA (CiRWYFSE[Aze]Cii[dA]AWCiii, scaffold TBMT) [BCY20394] gave a Kd of 1000 nM.

Molecular target: T4, human CD16a F176 variant, biotinylated (human, UniProt P08637 17-208, C-terminally biotinylated)
T4 construct: supplier is told for the AlphaScreen assay only; also called F Variant; FcγRIIIA F variant
T4 sequence (P08637 17-208 limits assumed, change not shown): as the sequence (P08637 other isoform, or with tags, fused parts or gaps mutant limits assumed) above, with V160F counted along it
Experiment: SPR
Description: as §1, §2

First: B7
Second: ACVGLXELGPCSDLCA (CiVGL[tBuAla]ELGPCiiSDLCiii, scaffold TBMT) [BCY16508]
The Kd of the first is 3-fold lower: 1000 nM for the first, 2980 nM for the second. The first binds more tightly here.

ACVGL[Cba]ELGPCSDLCA-NH2 (linker 2-11-15 via TBMT″, scaffold TBMT) [BCY16509] and ACVGLXELGPCSDLCA (CiVGL[Nle]ELGPCiiSDLCiii, scaffold TBMT) [BCY16511] are within 1.5-fold of each other in Kd: 2820 nM for the first, 4020 nM for the second.

ACRXSVEDPCGAWCA (CiR[6MeTrp]SVEDPCiiGAWCiii, scaffold TBMT) [BCY19046] and ACRXSVEDPCGAWCA (CiR[6ClTrp]SVEDPCiiGAWCiii, scaffold TBMT) [BCY19050] are within 1.5-fold of each other in Kd: 1600 nM for the first, 2150 nM for the second.

In the case of ACRWHFXEPCGAWCA (CiRWHF[HSer]EPCiiGAWCiii, scaffold TBMT) [BCY20388], the Kd is reported as 2980 nM.
